By Kd is commonly meant the concentration at which binding is half-saturated. What is called stoichiometry N is a count of units in the complex or per binding partner.

Sequences and labels used below:
B1: Pf1 200-241 (human Pf1 residues 200-241, wild type) (domain or fragment, UniProt Q96QT6 200-241, looked up)
chain: DYVQPQLRRPFELLIAAAMERNPTQFQLPNELTCTTALPGSS
B2: Pf1 200-241 Leu212Ala (domain or fragment, human, UniProt Q96QT6 200-241, looked up)
chain: DYVQPQLRRPFEALIAAAMERNPTQFQLPNELTCTTALPGSS
B3: Pf1 200-241 Phe225Ala (domain or fragment, human, UniProt Q96QT6 200-241, looked up)
chain: DYVQPQLRRPFELLIAAAMERNPTQAQLPNELTCTTALPGSS
B4: Pf1 200-241 Asn221Glu (domain or fragment, human, UniProt Q96QT6 200-241, looked up)
chain: DYVQPQLRRPFELLIAAAMEREPTQFQLPNELTCTTALPGSS
B5: mSin3A PAH2 (mammalian Sin3A PAH2 domain, residues 295-385) (domain or fragment, UniProt Q60520 295-385, looked up)
chain: SLQNNQPVEFNHAINYVNKIKNRFQGQPDIYKAFLEILHTYQKEQRNAKEAGGNYTPALTEQEVYAQVARLFKNQEDLLSEFGQFLPDANS

In assay [1] the target is mSin3A PAH2 (Mus musculus) (UniProt Q60520). To be noted: cited from earlier work.
Assay [2] concerns the target Pf1 200-241 (human Pf1 residues 200-241, wild type) (human) (UniProt Q96QT6). As to the kind of experiment: ITC.
The target of assay [3] is MRG15 MRG (human MRG15 MRG domain, residues 155-323) (human, UniProt Q9UBU8-2 155-323). As to the kind of experiment: ITC. For orientation: In ITC the heat of successive injections is recorded.
Assay [4] addresses B5. As to the kind of experiment: ITC.
The target of assay [5] is B3. As to the kind of experiment: ITC.
The target of assay [6] is B1. As to the kind of experiment: ITC.
In assay [7] the target is B4. As to the kind of experiment: ITC.
Assay [8] addresses B2. As to the kind of experiment: ITC.

Chain of MRG15 MRG (human MRG15 MRG domain, residues 155-323) (Q9UBU8 194-362): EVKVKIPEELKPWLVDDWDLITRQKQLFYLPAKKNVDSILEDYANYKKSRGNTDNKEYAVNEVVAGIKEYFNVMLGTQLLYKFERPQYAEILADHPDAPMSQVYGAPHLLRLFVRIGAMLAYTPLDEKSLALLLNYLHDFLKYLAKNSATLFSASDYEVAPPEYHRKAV
Chain of mSin3A PAH2 (Mus musculus) (Q60520 297-386): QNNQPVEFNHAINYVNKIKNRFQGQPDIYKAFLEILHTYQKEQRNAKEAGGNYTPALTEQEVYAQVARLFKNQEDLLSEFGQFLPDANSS

As for Mad1/Mxd1 (from UniProt Q05195), in assay [1], the Kd is 50 nM.

As for “mSin3B PAH2 (mammalian Sin3B PAH2 domain) (domain or fragment)”, in assay [2], the Kd stood at 2930 nM, the dH is -9.64 kcal/mol and the stoichiometry N was found to be 1.02.

On to B1, for which, in assay [3], the Kd was determined as 15 ± 3 nM, the dH is -13.1 ± 0.4 kcal/mol and the “stoichiometry N” value amounted to 0.82 ± 0.08. Binding in assay [4] was characterised by a dissociation constant (Kd) of 2150 ± 450 nM.

In turn, B2 showed a Kd in assay [4] of 2660 ± 460 nM.

B3: in assay [4], binding was put at a Kd of 1650 nM.

B4 showed a Kd in assay [4] of 630 ± 50 nM.

With B5, the dH in assay [5] is -4.97 kcal/mol; in assay [6] it was -6.58 ± 0.48 kcal/mol; in assay [7], -7.67 ± 0.43 kcal/mol; in assay [8], -4.31 ± 0.49 kcal/mol. For the same molecule, the “stoichiometry N” value in assay [5] amounted to 1.12; in assay [6], 0.99 ± 0.05; in assay [7] it was 1.16 ± 0.08; in assay [8], 1 ± 0.11.

Values taken from article PMC3096069 (Journal of molecular biology, 2011).
